Results from patent US11440969B2, “Use of human epididymis protein 4 (HE4) for assessing responsiveness of MUC 16-positive cancer treatment” (Genentech, Inc., priority 2016, dated 2022).

How the values were obtained:
[1] = system: MUC16 expressing mouse ovarian and pancreatic cancer xenograft models; assay: Mouse xenograft anti-tumor activity; type: in vivo; conditions: single agent
[2] = system: platinum-resistant ovarian cancer; assay: Clinical activity of DMUC5754A (RECIST v1.1) in ovarian cancer patients; type: in vivo, human
Experimental: This multicenter, open-label, dose-escalation study was designed to identify the recommended Phase II dose (RP2D) of DMUC5754A in patients with platinum-resistant OC or unresectable pancreatic cancer. In the single-agent dose escalation stage utilizing a 3+3 enrollment scheme, patients were given intravenous DMUC5754A (Genentech Inc.) 0.3-3.2 mg/kg every 3 weeks (q3w) to evaluate the safety, tolerability, and pharmacokinetics of DMUC5754A. Following determination of the maximum tolerated dose (MTD), dose-expansion cohorts were enrolled at the RP2D of 2.4 mg/kg to further characterize the safety and preliminary clinical efficacy of DMUC5754A.
Dosing on a weekly (qlw) schedule was also evaluated at the RP2D, employing a 3+3 design to determine the MTD of weekly dosing, followed by a cohort expansion to further characterize the safety and activity of q1w dosing.
OC patients had advanced, epithelial ovarian, primary peritoneal, or fallopian tube cancer that progressed or relapsed within 6 months after the most recent treatment with a platinum-containing chemotherapy regimen and for which no standard therapy exists. […] Progression or relapse from prior platinum-based chemotherapy was documented by RECIST v1.1 or Gynecologic Cancer Intergroup (GCIG) CA125 progression criteria (Vergote et al., 2000). Patients were allowed ≤2 prior chemotherapy regimens.
Objective response rate was estimated only for patients with disease that was measurable by RECIST guidelines. Objective response is defined as a complete or partial response, as determined by investigator assessment and confirmed by repeat assessments ≥4 weeks after initial documentation. Duration of objective response was defined as the time from the initial complete or partial response to the time of disease progression or death.

B1: DMUC5754A: antibody-drug conjugate: humanized IgG1 anti-MUC16 monoclonal antibody and MMAE, linked through protease labile linker maleimidocaproyl-valine-citrulline-p-aminobenzyloxycarbonyl (conjugate, chains of the INN, looked up)
VH: EVQLVESGGGLVQPGGSLRLSCAASGYSITNDYAWNWVRQAPGKGLEWVGYISYSGYTTYNPSLKSRFTISRDTSKNTLYLQMNSLRAEDTAVYYCARWTSGLDYWGQGTLVTVSS
VL: DIQMTQSPSSLSASVGDRVTITCKASDLIHNWLAWYQQKPGKAPKLLIYGATSLETGVPSRFSGSGSGTDFTLTISSLQPEDFATYYCQQYWTTPFTFGQGTKVEIK
modifications: MMAE via mc-vc-PABC linker
For B1, the anti-tumor activity [1] was “potent and selective single agent anti-tumor activity”, the “Best response: Complete response, patients” value ([2]; 0.8 mg/kg q1w (N = 3)) was 0 and the “Best response: Partial response, patients” value ([2]; 0.8 mg/kg q1w (N = 3)) was 1. The “Best response: Progressive disease, patients” value ([2]; 0.8 mg/kg q1w (N = 3)) was 0, the “Best response: Stable disease, patients” value ([2]; 0.8 mg/kg q1w (N = 3)) was 2 and the “Best response: Unable to evaluate, patients” value (“Best response: Unable” below) ([2]; 0.8 mg/kg q1w (N = 3)) was 0. For the same molecule, the “Duration of response, Median” value ([2]; 0.8 mg/kg q1w (N = 3)) was 3.0 months, the “Duration of response, Range” value ([2]; 0.8 mg/kg q1w (N = 3)) was 3.0-3.0 months and the “unconfirmed partial responses, patients” value ([2]; 1.1 mg/kg q1w) was 1. For the same molecule, the “Best response: Complete response, patients” value ([2]; 1.1 mg/kg q1w (N = 7)) was 0, the “Best response: Partial response, patients” value ([2]; 1.1 mg/kg q1w (N = 7)) was 1 and the “Best response: Progressive disease, patients” value ([2]; 1.1 mg/kg q1w (N = 7)) was 3. For the same molecule, the “Best response: Stable disease, patients” value ([2]; 1.1 mg/kg q1w (N = 7)) was 3, the “Best response: Unable” value ([2]; 1.1 mg/kg q1w (N = 7)) was 0 and the “Duration of response, Median” value ([2]; 1.1 mg/kg q1w (N = 7)) was 6.8 months. The “Duration of response, Range” value ([2]; 1.1 mg/kg q1w (N = 7)) was 6.8-6.8 months, the “minor responses, patients” value ([2]; 1.2 mg/kg q3w) was 1 and the “minor responses, patients” value ([2]; 1.4 mg/kg q1w) was 1. For the same molecule, the “Best response: Complete response, patients” value ([2]; 1.4 mg/kg q1w (N = 6)) was 0, the “Best response: Partial response, patients” value ([2]; 1.4 mg/kg q1w (N = 6)) was 1 and the “Best response: Progressive disease, patients” value ([2]; 1.4 mg/kg q1w (N = 6)) was 2. For the same molecule, the “Best response: Stable disease, patients” value ([2]; 1.4 mg/kg q1w (N = 6)) was 2, the “Best response: Unable” value ([2]; 1.4 mg/kg q1w (N = 6)) was 1 and the “Duration of response, Median” value ([2]; 1.4 mg/kg q1w (N = 6)) was 4.6 months. The “Duration of response, Range” value ([2]; 1.4 mg/kg q1w (N = 6)) was 4.6-4.6 months, the “minor responses, patients” value ([2]; 1.6 mg/kg q1w) was 1 and the “minor responses, patients” value ([2]; 2.4 mg/kg q3w) was “Two”. The “unconfirmed partial responses, patients” value ([2]; 2.4 mg/kg q3w) was 1, the “Best response: Complete response, patients” value ([2]; 2.4 mg/kg q3w (N = 29)) was 1 and the “Best response: Partial response, patients” value ([2]; 2.4 mg/kg q3w (N = 29)) was 3. For the same molecule, the “Best response: Progressive disease, patients” value ([2]; 2.4 mg/kg q3w (N = 29)) was 6, the “Best response: Stable disease, patients” value ([2]; 2.4 mg/kg q3w (N = 29)) was 17 and the “Best response: Unable” value ([2]; 2.4 mg/kg q3w (N = 29)) was 2. The “Duration of response, Median” value ([2]; 2.4 mg/kg q3w (N = 29)) was 4.9 months, the “Duration of response, Range” value ([2]; 2.4 mg/kg q3w (N = 29)) was 3.0-11.3 months and the “minor responses, patients” value ([2]; 3.2 mg/kg q3w) was 1. For the same molecule, the “average length of time on the study” value ([2]; FIG. 4) was 103 days, the “decrease in SLD of target lesions” value ([2]; a patient at 3.2 mg/kg q3w, PD as overall status due to new lesions) was > 30% and the “patients on the study ≥105 days” value ([2]; of the 29 patients at 2.4 mg/kg q3w) was “Sixteen”. The “reduction (MRI), complete response” value ([2]; person, 2.4 mg/kg IV q3w, after two doses) was 100%, the “tumor response nadir, reduction” value ([2]; person, 2.4 mg/kg, after 8 doses) was 88% and the “reduction in 3 target lesions (CT), partial response” value ([2]; person, 2.4 mg/kg, after two doses) was 37%. It also gave a confirmed responses ([2]; q1w cohorts, at 0.8, 1.1, and 1.4 mg/kg levels) of 3.
